The nature of this data set: melting temperature; melt of duplexes. The following applies: sodium 0.0675 M; strand 1 µM.
With “CGACGTGCTGAATGTGCTG+CAGCACATGGCGCACGTCG ((((((((...((((((((+))))))))...))))))))”, the melting temperature (Tm) (commonly the temperature at the midpoint of the melting transition) was determined as 52.3 °C.
For the substance “CGACGTGCGGAATGTGCTG+CAGCACATTTAGCACGTCG ((((((((..(((((((((+)))))))))..))))))))”, the Tm worked out at 55.1 °C.
“CGACGTGCTGAATGTGCTG+CAGCACATTTCGCACGTCG ((((((((..(((((((((+)))))))))..))))))))”: the Tm came out at 53.1 °C.
On to “CGACGTGCCGCATGTGCTG+CAGCACATTTTGCACGTCG ((((((((...((((((((+))))))))...))))))))”, for which the Tm stood at 46.2 °C.
In the case of “CGACGTGCAGGATGTGCTG+CAGCACATGTAGCACGTCG ((((((((...((((((((+))))))))...))))))))”, the melting temperature (Tm) amounted to 50.4 °C.
“CGACGTGCTCCATGTGCTG+CAGCACATCCGGCACGTCG ((((((((...((((((((+))))))))...))))))))”: the midpoint of thermal melting (Tm) stood at 47.7 °C.
Consider “CGACGTGCCTAATGTGCTG+CAGCACATCCGGCACGTCG (((((((((..((((((((+))))))))..)))))))))”, for which the Tm was 52 °C.
Turning to “CGACGTGCAGGATGTGCTG+CAGCACATTCCGCACGTCG ((((((((.(.((((((((+)))))))).).))))))))”, the Tm amounted to 54.6 °C.
Turning to “CGACGTGCGGAATGTGCTG+CAGCACATGGCGCACGTCG (((((((((..((((((((+))))))))..)))))))))”, the midpoint of thermal melting (Tm) came to 58.4 °C.
As for “CGACGTGCGTCATGTGCTG+CAGCACATGGAGCACGTCG ((((((((..(((((((((+)))))))))..))))))))”, the midpoint of thermal melting (Tm) was 58.4 °C.
As for “CGACGTGCCTCATGTGCTG+CAGCACATTTGGCACGTCG (((((((((..((((((((+))))))))..)))))))))”, the melting temperature (Tm) is 53.6 °C.
Take “CGACGTGCAGCATGTGCTG+CAGCACATCCCGCACGTCG ((((((((.(.((((((((+)))))))).).))))))))”: the Tm stood at 46.3 °C.
With “CGACGTGCTGTATGTGCTG+CAGCACATCGTGCACGTCG ((((((((...((((((((+))))))))...))))))))”, the Tm stood at 46.4 °C.
Consider “CGACGTGCTAAATGTGCTG+CAGCACATCTTGCACGTCG ((((((((.(.((((((((+)))))))).).))))))))”, for which the Tm came out at 50.1 °C.
With “CGACGTGCGCGATGTGCTG+CAGCACATAATGCACGTCG ((((((((...((((((((+))))))))...))))))))”, the Tm came to 50 °C.
On to “CGACGTGCGTAATGTGCTG+CAGCACATGGAGCACGTCG ((((((((...((((((((+))))))))...))))))))”, for which the melting temperature (Tm) is 60.7 °C.
Turning to “CGACGTGCAACATGTGCTG+CAGCACATTCTGCACGTCG (((((((((..((((((((+))))))))..)))))))))”, the melting temperature (Tm) worked out at 50.1 °C.
Take “CGACGTGCGCCATGTGCTG+CAGCACATTTAGCACGTCG ((((((((...((((((((+))))))))...))))))))”: the midpoint of thermal melting (Tm) was 50.1 °C.
In the case of “CGACGTGCGTAATGTGCTG+CAGCACATCGAGCACGTCG ((((((((...((((((((+))))))))...))))))))”, the melting temperature (Tm) was determined as 53.1 °C.
On to “CGACGTGCAACATGTGCTG+CAGCACATAGTGCACGTCG (((((((((..((((((((+))))))))..)))))))))”, for which the Tm came to 48.9 °C.
Take “CGACGTGCGCGATGTGCTG+CAGCACATCCAGCACGTCG ((((((((..(((((((((+)))))))))..))))))))”: the Tm was found to be 55.6 °C.
Turning to “CGACGTGCGAGATGTGCTG+CAGCACATTGTGCACGTCG ((((((((...((((((((+))))))))...))))))))”, the Tm came out at 49.7 °C.
For the substance “CGACGTGCGAAATGTGCTG+CAGCACATGGTGCACGTCG ((((((((...((((((((+))))))))...))))))))”, the melting temperature (Tm) was 50.6 °C.
As for “CGACGTGCACTATGTGCTG+CAGCACATATTGCACGTCG (((((((((.(((((((((+))))))))).)))))))))”, the Tm worked out at 51.5 °C.
As to “CGACGTGCTGCATGTGCTG+CAGCACATTCTGCACGTCG ((((((((.(.((((((((+)))))))).).))))))))”, the melting temperature (Tm) was 51.8 °C.
In the case of “CGACGTGCGATATGTGCTG+CAGCACATTCGGCACGTCG ((((((((...((((((((+))))))))...))))))))”, the Tm was found to be 52.7 °C.

(Values after the array DNA melting data of Ke et al..)
